In patent US20110110981A1:

Biological target: purified IgG1
Assay: ELISA on dilutions of purified isotype standards

Question: With “anti-mouse IgG1 secondary antibody (tool reagent)” as the substance, how does the greater affinity than the IgG2a antibody pair read?
Answer: 40%
